Assay: yeast display, Sf9 membrane polyspecificity reagent, FACS + sequencing; frameworks hold sequencing errors
How it was run: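 Nanobodies from a synthetic yeast display library (Saccharomyces cerevisiae BJ5465), induced 36–48 hours with galactose, were stained 1 hour at 4 °C with 10% biotinylated, detergent-solubilized Sf9 membrane reagent, enriched on streptavidin microbeads, then FACS-sorted. Anti-HA (expression) and streptavidin (reagent binding) fluorescence set low and high (top ~1%) gates. Polyreactivity labels come from the gate of origin. Genes were colony-PCR amplified, MiSeq 2 × 250 sequenced and filtered by CDR length.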

Sequence: QVQLVESGGGLVLAGGSLRLSCAASGSTFGGYAMGWYRQATGKERELVAAISGSGVRTYYADSVKGRFTISRDNAKNTVYLQMNSRKPEDTAVYYCAKRVRYPGDRYYYWGQGTQVTVSS
- polyreactivity (PSR sort gate): high polyreactivity

Sequence: QVQLVESGGGLVQAGGSLRLSCAASGSTFYKYTMGWYRQAPGKERELVAAISGSGTTTYYADSVKGRFTISRDNAKNTVYLQMNSLNPEDTAVYYCAASLYLYNSRITVRSHYYYWGQGTQVTVSS
- polyreactivity (PSR sort gate): high polyreactivity

Sequence: QVQLVESGGGLVQAGGSLRLSCAASGSIFGVYTMGWYRQAPGKERELVAAISRNGGSTYYEDSVKGRFTISRDNAKNTVYLQMNSLKPEDTAVYYCATSTSRRYGSRHNYWGQGTQVTVSS
- polyreactivity (PSR sort gate): high polyreactivity

Sequence: QGQLVESGGGLVQAGGSLRLSCAASGFSFQYYAMGWSRHAHGKERELVAAINRGGGTHYADSVKGRFTISRDNAKNTVYFQMHSLKPEDTAVYYCNKVYYWPGSRPSRYEYWGQGTQVTVSS
- polyreactivity (PSR sort gate): low polyreactivity

Sequence: QVQLVESGGGLVQAGGSLRLSCAASGFTFGYYGMGWYRQAPGKERELVAAISWSGGSTYYADSVKGRFTISRDNEKNTVYLQMNSLKPEDTAVYYCNADYAGFYQRRYIEDDYWGQGTQVTVSS
- polyreactivity (PSR sort gate): low polyreactivity

Sequence: QVQLVESGGGLVQAGGSLRLSCAASGSIFVVYAMGWSREGPGKERELVAAISWGIGSTYYADSVKGRFTISRDNAKNTVYLQPNSLKPEDTAVYYCAADTDIVLYDYWGQGTQVTVSS
- polyreactivity (PSR sort gate): low polyreactivity

Sequence: QVQLVESGGGLVQAGGSLRLSCAASGGTFRRNAMGWYRQAPGKERELVAAISFNGDRTYYADSVKGRFTISRDNAKNTVYLQMNSLKPEDTAVYYCNKASWWWGGYTYPHEYWGQGTQVTVSS
- polyreactivity (PSR sort gate): low polyreactivity

Sequence: QVQLVESGGGLVQAGGSLRLSCAASGFTFVRYAIGWYRQAPGKERELVSVISRSGGSTNYADSVKGRFTISRDNAKNTVYLQMNSLKPEDTAVYYCAASLQYRRVVKGGDYWGQGTQVTVSS
- polyreactivity (PSR sort gate): high polyreactivity

Sequence: QVQLVESGGGLVQAGGSLRLSCAASGFTFWDYAMGWYRQAPGKERELVAAISDNDGSTDYADSVKGRFTISRDNAKNTVYLQMNSLKPEDTAVYYCNAEIEMPSKEGDYWGQGTQVTVSS
- polyreactivity (PSR sort gate): low polyreactivity

Sequence: QDQLVESGGGLVQAGGSLRLSCAASGSTIYAYAMGWYRQAPGKERELVARIRWRGGRTYYADSVKGRFTISRDNAKNTVYLRMNSLKPEDTAVYYCAAYKRRSNGRYWTYDYWGQGTQVTVSS
- polyreactivity (PSR sort gate): high polyreactivity

Sequence: QVQLVESGGGLVQAGGSLRLSCAPSGSTFQYNAMGWYRQAPGKEREFVAAISWRGGNTYYADSVKGRFTISRDNAKNTVYLQMNSLKPEDTAVYYCAAGRQRYAFKYYYWGQGTQVTVSS
- polyreactivity (PSR sort gate): high polyreactivity

Sequence: QVQLVESGGGLVQAGGSLRLSCAASGSTFNPYAMGWYRQAPGKERELVAAITWSSDDTYYADSVKGRFTISRDNAKNTVYLQMNSLKPEDTAVYYCAATTVTQWYTITVAYGYWGQGTQVTVSS
- polyreactivity (PSR sort gate): low polyreactivity

Sequence: QLQLVESGACLVQAGGSLRLSCAASGRIFTSYSMGWYRHAPGKEREMVAAINRGADTYYADSVKGRFTISRDNAKNTVYLQMNSVKPEDNAVYYCNAADAVSDYPDFQIYDYWGQGTQVTVSS
- polyreactivity (PSR sort gate): low polyreactivity

Sequence: QVQLVESGGDLVQAGGSLRLSCAASGSIFYINAMGWYRQAPGKERELVASISYSGTSTYYADSVKGRFTISRDNAKNTVYLQMNSLKPEDTAVYYCNSEDTPGAGDGYWGQGTQVTVSS
- polyreactivity (PSR sort gate): low polyreactivity

Sequence: QVQLVESGGGLVQAGGSLRISCAASGIIFRLNAMGWYRQAPGKERELVAAIRRRGGSTYNADSVKGRFTISRHNAKNTVYLQMNSLKPEDTAVYYGAKDPHGSDFGYWGQGTQVTVSS
- polyreactivity (PSR sort gate): low polyreactivity

Sequence: QVQLVESGGGLVQAGGSLRLSCAASGSTFVRYVMGWYRQATGKERELVAAISRRGGSTYYADSVKGRFTISRDNAKNTVYLQMNSLKPEDTAVYYCARTVGYRTLLESDSWGQGTQVTVSS
- polyreactivity (PSR sort gate): high polyreactivity

Sequence: QVQLVESGGGLVQAGGSLRLSCAASGNILFSYAMGWYRQAPRKERELVAAISSSGGSTYYADSVKGRFTISRDNAKNNVYLQMNSLKPEDTAVYYCARYSFYKYDYWGQGTQVTVSS
- polyreactivity (PSR sort gate): high polyreactivity

Sequence: QVQLVESGGGLVQAGGSLRLSCAASGFTFRYYAMGWYRQAHGKERELVASITGGGRTYYADSVKGRFTISRDNAKNTVYLQMNSLKPEDTAVYYCATLLAYRLGSGYDSWGQGTQVTVSS
- polyreactivity (PSR sort gate): high polyreactivity

Sequence: QVQLVESGGGLVQAGGSLSLSCAASGRIYYYAMGWYRQAPGKERELVAAITGRGGSTYYADSVKGRFTISRDNAKNRVYLQMNSLKPEDTAVYYCARAGCPRHDWGQGTQVTVSS
- polyreactivity (PSR sort gate): high polyreactivity

Sequence: QVQLVESGGGLVQAGGSLRLSSAASGGTFTKNAMGWYRQAPGKERELVAAISWRGTSTYYADSVKGRFSISRDNAKNTVYLQMNSLKPDDTAVYFCLPWVGYGRYKPGYKYDYWGQGTQVTVSS
- polyreactivity (PSR sort gate): high polyreactivity

Sequence: QVQLVESGGGLVQAGGSLRLSCAASGRTFPLNAMGWYRQAPGKERELVAAITWSGGRTYYADSVKGRFTISRDNAKNTVYLQMNSLKPEDTAVYYCATDRYAYKLYDYWGQGTQVTVSS
- polyreactivity (PSR sort gate): low polyreactivity

Sequence: QVQLVESGGGLVQAGGSLRLSCAASGRIIADNAMGWYRQAPGKERELVATISSGGSTSYADSVKGRFTLSRDNAKNTVYLQMNSLKPEDTAVYYCATPFTGPSGPYDYWGQGTQGTVSS
- polyreactivity (PSR sort gate): low polyreactivity

Sequence: QVQLVESGGLLVKAGGSLRLSCAASGSIFYLYVMGWYRQAPGIERELVAANTWSGGSTYYADSVKGRFTISRDNAKNTVYLQMNILIPEDTAVYYCAARGYVPYVKYDYWGQGTQVTVSS
- polyreactivity (PSR sort gate): high polyreactivity

Sequence: QVQLVESGGALVQAGGSLRLSCAASAFIFKANAMGRYRQAPGKERELVASITFGGDSTYYADSVKGRFTISRDNAKNTVYLQMNSLKAEDNAVYFCNTRRRSYPTYYYWGQGTQVTVLS
- polyreactivity (PSR sort gate): low polyreactivity

Sequence: QVKLVESGGGLVQAGGSLRLSCAASGFTFISNAMGWYRQAPGKERELVAAISSSGGRTYYADSVKGRFTISRDNAKNTVYLQMNSLKPEDTAVYYCNADRSLLYSRKIEYDYWGQGTQVTVSS
- polyreactivity (PSR sort gate): low polyreactivity

Sequence: QVQLVESGGGLVQAGGSLRLSCAATGRTFQFNAMGRYRQAPGKERELVAAITSNGGSTNYADSVKGRFTISRDNAKNTVYVQMNSLKPEDTAVYYSAAPRFRYYYWDMDYWGQGTQVTVSS
- polyreactivity (PSR sort gate): low polyreactivity

Sequence: QVQLVESGGGLVQAGGSLRLSCAASGFIFFFYAMGWYSQAPGKERELVASISWNGGSTYYADSVKGRFTISRDNAKNTVYLQMNSLKPEDTAVYYCNKDPVSLWYYSKDYTYDYWGQGTQVTVSS
- polyreactivity (PSR sort gate): low polyreactivity

Sequence: QVQLVESGGGLVQAGVSLRLSCAGSGSIFRSYTMGWYRQAPGKERELVAAISYSGGRTYYADSVMGRFTISRDNAKNTVYLQLNSLKPEDTAVYYCARRYYVTGCVGYDYWGQGTQVTVSS
- polyreactivity (PSR sort gate): high polyreactivity

Sequence: QVQLVESGGGLVQAGGSLRLSCAASGSTFGYYTMGWYRQAPGKERELVAAITWSGGSTYYADSVKGRFTISRDNAKNTVYLQMNSLKPEDTAVYYCADDDYWTPFGYWGQGTQVTVSS
- polyreactivity (PSR sort gate): low polyreactivity

Sequence: QVQLVESGGGLVQAGGSLRLSCAASGRTFTANAMGWYRQAPGKERELVAGITSRGGGTYYADSVKGRFTISRDNAKNTVYLQMNSLKPEDTAVYYCAAPYNGGGVHSYWEYDYWGQGTQVSVSS
- polyreactivity (PSR sort gate): high polyreactivity

Sequence: QVQLVESGGGLVQAGGSLRLSCAASGRTFGVYAMGWNRQPPGKERELVATITSVDRTTYADSVKGRFTFSRDNAKITVYLQMNSLKPEDTAVYYCAAVGRWPRYYYWGQGTQVTVSS
- polyreactivity (PSR sort gate): high polyreactivity

Sequence: QVQLVDSGGGLVQAGGSLRLSCAASGSTFGPYAMGWYRQAPGKERELVAAISGSGGTTYYADSVKGRFTMSRDNSKNTVYLQMNSLKPEDTAVYDCAAYPRWTYWGYVERYYWGQGTQVTVSS
- polyreactivity (PSR sort gate): high polyreactivity

Sequence: QVQLVESGGGLVQAGGSLRLSCAASGRIFYRYAMGWYRQAPGKERELVARITSSGSTNYADSVKGRFTISRDNAKNTVYLQMNSLKPEDTAVYYCAARKLFIPKYYYWGQGTQVTVSS
- polyreactivity (PSR sort gate): high polyreactivity

Sequence: QVQLVESGGGLVQAGGSLRLSCAASGRIFYRYVMGWYRQAPGKERELVAAITSSGGSTYYADSVKGRFTISRDNAKHTVYLQMISLQPEDTAVYYCAADRYTRYRYNYWGQGTQVTVSS
- polyreactivity (PSR sort gate): high polyreactivity

Sequence: QVQLVESGGGLVQAGGSLRLSCAASGITFSYYAMGWYRPAPGKERELVAAINSGGGSTYYADSVKGRFTISRDNAKNTVYLQMNSLKPEDTAVYYCAARYRSRYDYYYDRDYWGQGTQVTVSS
- polyreactivity (PSR sort gate): low polyreactivity

Sequence: QVQLVESGGGLVQAGGSLRLSCAASGRTFIRYTTGWYRQAPGTERELVAAITSTGRTYYADSVKGRFTISRDNAKNTVYLQMNSLKPEDTAVYYCAAEAGYGDYYYGYDYWGQGTQVTVSS
- polyreactivity (PSR sort gate): low polyreactivity

Sequence: QVQLVESGGGLVQAGGSLRLSCAASGFIFSGNAMGWYRQAPGKERELVATITTGGTTKYADSVKGRFTISRDNAKNTVYLQMNSLKPEDTAVYYFAKSWSYWYQYYYWGQGTQVTVSS
- polyreactivity (PSR sort gate): low polyreactivity

Sequence: QVQLVESGGGLVQAGGSLRLSCAASGSIFDRYDMGWYRQAPGKERELVAAISTGGSTNYADSVKGRFTISRDNAKNTVYLHMNSLKPEDTAVYYCADRYLYRMYYWGQCTQVTVSS
- polyreactivity (PSR sort gate): low polyreactivity

Sequence: QVQIVESGGGLVQAGGSHRISCAASGLIFQSNAMGWYRQAPGKESELVAAISTAGSTNYADSVKGRFTISRDNAKNTFYFQMNSLIPQDTAVYYFAAQVSTPYRYPRQMLYDSWGQGTQVTVSS
- polyreactivity (PSR sort gate): low polyreactivity

Sequence: QVQLVESGGALLQAGGSLRLSCAASGSIFRFYAMGWYRQAPGKERELVARISGGGTTNYADSVKGRFTISRDNAKYTVYLQKNSQKPDDTAVYYCAAGCLYLPIWYPRWRYEYWGQGTQVTVSS
- polyreactivity (PSR sort gate): low polyreactivity

Sequence: QVQLVESGGGIVQAGGTLRLSCAASGSTFKNKAMGCNRHAPGKETEFVAGITRRGTSTYYADSVKGRFTISLDNAKNSVYLQMNSLKPEDTSVYYCAARAWYPSRYDYWGQGTLVTVSS
- polyreactivity (PSR sort gate): high polyreactivity

Sequence: QVQLVESGGGLVQAGGSIRLSCAASGITFYKYAMGWYRQAPGKERELVAAISGNGGSTYYADSVKGRFTISRDYAKNTVYLQMNSLKPEDTAVYFCNRGYRRTDNYWGQGTQVTVSS
- polyreactivity (PSR sort gate): high polyreactivity

Sequence: QVQLVESGGGLVQAGGSLRLSCAASGRTFYDNAMGWYRQAPGKERELVAAITKSGGRTYYADSVKGRFTISRDNAKNTVYLQMNSLKPEDTAVYYCAASWPNYLYEYWGQGTQVTVSS
- polyreactivity (PSR sort gate): high polyreactivity
